{"source": "paper PMC10158025", "biological_target": "CtBP2-Gluc-N / CtBP2-Gluc-C (CtBP-Gluc-PCA reporter) (human) (UniProt P56545)", "test": "split reporter (BiFC, NanoBiT); Gluc-PCA in 293 cells co-transfected with the Gluc-N and Gluc-C fusions, luminance read; MTOB treatment gave a dose-dependent reduction of the signal"}
{"substance": "CtBP2-Gluc-N / CtBP2-Gluc-C (CtBP-Gluc-PCA reporter), P56545 1-445 (natural protein; other documents disagree on this pair)", "values": [{"measurement": "fold lower Gluc-PCA signal than the Zip-Zip dimer", "value": 10, "unit": "fold"}]}
